Assay results published in the DeepSol protein solubility set.

Assay: soluble on expression in E. coli; label from the status in PepcDB or PDB records

Sequence	soluble on expression in E. coli
MSYYHHHHHHLESTSLYKKAGMSDFYDPRERDPSVSRRPQNRQSDEWIRELLLRGTIARVATLWQGEDGAAFPFITPLAYAYRPEQGDLVYHTNVVGRLRANAGQGHPATLEVSEIGQFLPSNSPLELSVQYRSVMVFGTARVLAGEDARAALTTLSERVFPGLKVGETTRPISEDDLKRTSVYSLSIDRWSGKENWAEQAIQEEDWPALGPEWLG	soluble
MSYYHHHHHHNYNIPTTENLYFQGAMVAPAGEQGRSSTALSDNPFDAKAWRLVDGFDDLTDITYHRHVDDATVRVAFNRPEVRNAFRPHTVDELYRVLDHARMSPDVGVVLLTGNGPSPKDGGWAFCSGGDQRIRGRSGYQYASGDTADTVDVARAGRLHILEVQRLIRFMPKVVICLVNGWAAGGGHSLHVVCDLTLASREYARFKQTDADVGSFDGGYGSAYLARQVGQKFAREIFFLGRTYTAEQMHQMGAVNAVAEHAELETVGLQWAAEINAKSPQAQRMLKFAFNLLDDGLVGQQLFAGEATRLAYMTDEAVEGRDAFLQKRPPDWSPFPRYF	soluble
MTAKQFRHGGENLAVRYALADCELGRCLVAESERGICAILLGDDDATLISELQQMFPAADNAPADLMFQQHVREVIASLNQRDTPLTLPLDIRGTAFQQQVWQALRTIPCGETVSYQQLANAIGKPKAVRAVASACAANKLAIVIPCHRVVRGDGSLSGYRWGVSRKAQLLRREAENEER	soluble
MTAPFFPRILGAVAFLNQETEPLTMNLQHHFLIAMPALQDPIFRRSVVYICEHNTNGAMGIIVNKPLENLKIEGILEKLKITPEPRDESIRLDKPVMLGGPLAEDRGFILHTPPSNFASSIRISDNTVMTTSRDVLETLGTDKQPSDVLVALGYASWEKGQLEQEILDNAWLTAPADLNILFKTPIADRWREAAKLIGVDILTMPGVAGHALEHHHHHH	not soluble
MTAPSQVLKIRRPDDWHVHLRDGDMLKTVVPYTSEIYGRAIVMPNLASPITTVDAAIAYRQRILDAVPAGHDFTPLMTCYLTDSLDADELERGFHEGVFTAAKLYPANATTNSSHGVTSVDAIMPVLERMEKLGIPLLVHGEVTHADVDIFDREARFIDTVMEPLRQRLTALKVVFEHITTKDAAQYVRDGNDYLAATITPQHLMFNRNDMLVGGIRPHLYCLPILKRNIHQQALRELVASGFTRAFLGTDSAPHSRHRKETSCGCAGCFNAPSALGSYAAVFEEMNALAHFEAFCSLNGPQFYGLPMNTGWVELVRDEQQIPGNIALADDSLVPFLAGETVRWSVKK	not soluble
MTARDYIWNADGEVGGINDKLRGCLVFSYDRSGWLTSRTGQMYDHDHYYYDKAGNLLTDEYQGAVMDNRLPGYGRDRYRYNEWGELTERRDQQLEWNAQGQLTRVISSNSETRYQYDALGRRISKATSNLHTDRGERSRTTFVWEGFRLLQETTWQGKRTYLYDAEQPYTPVAAITGRGESQKIWYYHTDLTGTVHEVTAPDGTLVWAGYQAGFGENRGDISNSGAYFEQPQRLPGQYFDEETGLHYNLFRYYAPECGRFVSQDPIGLNGGLNLYAYAPNPLGWIDPLGLNSLGIDSNNIFRGDGNYKGGGIGQPKSGTISAQDIIDHLLEHHHHHH	not soluble
MTARNPLEAQAWALLEAVYDPELGLDVVNLGLIYDLVVEPPRAYVRMTLTTPGCPLHDSLGEAVRQALSRLPGVEEVEVEVTFEPPWTLARLSEKARRLLGWG	soluble
MTASERVVVKELSSSLLDMKFMLKKKKQIETKAAKKKEAKLDQLITEKEAEATCSTEILKSSEPKLEICYDYAKLENLKFGRLSFGGFNKEVELLMEYYEKLQNGMLSDSDDDGMDVDDEEMAKSLGGQKLAALDKKSQSKRERRQQNERNEETTGGRRFNIKDIRKRFAADDVADAPERKFMKPAEDC	not soluble
MTASHGQAAAIPTVTLNDDNTLPVVGIGVGELSDSEAERSVSAALEAGYRLIDTAAAYGNEAAVGRAIAASGIPRDEIYVTTKLATPDQGFTSSQAAARASLERLGLDYVDLYLIHWPGGDTSKYVDSWGGLMKVKEDGIARSIGVCNFGAEDLETIVSLTYFTPAVNQIELHPLLNQAALREVNAGYNIVTEAYGPLGVGRLLDHPAVTAIAEAHGRTAAQVLLRWSIQLGNVVISRSANPERIASNLDVFGFELTADEMETLNGLDDGTRFRPDPATYTGS	soluble
MTATSSPTTRFTDRVVLITGGGSGLGRATAVRLAAEGAKLSLVDVSSEGLEASKAAVLETAPDAEVLTTVADVSDEAQVEAYVTATTERFGRIDGFFNNAGIEGKQNPTESFTAAEFDKVVSINLRGVFLGLEKVLKIMREQGSGMVVNTASVGGIRGIGNQSGYAAAKHGVVGLTRNSAVEYGRYGIRINAIAPGAIWTPMVENSMKQLDPENPRKAAEEFIQVNPSKRYGEAPEIAAVVAFLLSDDASYVNATVVPIDGGQSAAY	soluble
MTATTNESQEIAMTATTADEIPASTEQNLRIVQRVIFPANRDLDTLPLYVDPDTNKLHTSGGGADVQAIGMARKLHPEDILNRGSVQVRRGERLSFGSYFNAFPASYWRKWTIATKTVLHIETEGEGTVIVYRSNARGASQRVDSILVEGPSTNEFELTLAPFGDGGWYWFDLIAGGDGMTLKSAHWAVPDEGRPQGRVTLGVTTFNRADYCLETIKSIDGDAGLREILAELIIVDQGNKKVADQAGFDAVAESMGDQLRIINQGNLGGSGGFARNMYEMVVSDKSDYVMLLDDDIELETEGVMRAVAFADLCRKPTIVGGHMFDMYNKSVLHAYSEVVNFYRFLWGPVEGLGNHDFSTAGLRSTPQLHRRWDADYNGWWMCLIPKTVVETIGLSLPVFIKWDDAEYSLRGRAAGFPTVTLPGAAVWHVSWADKDDSVDWQAYYHERNRLIATLLHSPFPKGGRILRESLNTDVKHLVSMQYYPEQARVMALRDVLAGPDNLHKQLPTTMPKLRAMREEFPDSQVKTDPAAFPEVFRKRPPKKPQSFKQPGALGLLPWAVKTVLKQTLAPVRGTAKAAPEAHVAHQDGKWWSLAHLDSAVVSNADGTGASWHLRNPKMARQLVVESAKLHAQLFSNWETLRAQYREALPEITSMESWRETFEASEPSK	not soluble
MTAVRRIRAAALPDLPDASWSNALLVGEELVMSGMTAHPATRQAAERGAALDAHAQALVVLGKVKALLEAAGGHVGNLYKLNVYVTRIADKDAIGRARQEFFAGQGTFPASTLVEVSGLVFPELLVEIDAWARLDIDLANCDEA	soluble
MTAVTAGKLIGVGVGPGDPELLTVKAVKAIKSADVIVFHAKPNGQSAAHRIAESYIRQDQVLELLEYPVTTGVTEHPGGYAGAMAAFYASVGERLRDHLIEGKNVVVLALGDPMLYSSYQHIHRLLSEDFNAEIIPGIPSITSAADVLGKPLCEDDDVLTILPGTLPHSELVARLSDSDGAVVMKLGRTFDKVRKAMIEAGVADRAHVVVRVGMADQHSVPVMEADPQAIPYFSVAVVPSITDTNGDSGDKQQGEVVVVGLGPGGHRWTTPEVMAELKQATDIVGYSTYVNRVPQQAGQRRHLSDNKVEAERAAMALDMAKQGRKVAVVSSGDPGVFAMAAAVLETADDDQWREVPVRIIPGMTAAQAVASRVGAPLGHDFGMISLSNRLKPFEIVEKRIRALASADMAFACYNPASKERRWQVARMKEIVSEYQAGSTPVIVARAVGSDQETVTVTTLEDFDPDIVDMRTMVIIGASTTKTYQGGDGVRVFTSRWYT	not soluble
MTDKSKTEKLISSDDKQSVIDGILDMVFNSKAYEVPWISEKLMELSKNKDLDIAGLSLTCFGHLARLHSNIGDYDKVIPLLHSKQDDPELQGRAEDALEDISLFLSENH	not soluble
MTDNPAVDKRDQILAAAEQLIAESGFQGLSMQKLANEAGVAAGTIYRYFSDKEHLLEEVRLNVAKRIASAVQAGVNDDMPLKECYRTMWLNIWNLAGSNLNAISNRVQYDSLPCTTRNKTWELERKMFAQVDRLFNQGKEEGVFKPLDNEVLSGLSFEASVALARKHALGFYQLDDDALEAAIEASWDAIIKH	soluble
MTDSDGKIVWETGYQVWGNTIQEKDHGGVEQNLRYQGQYLDRETGLHYNLHRYYDPDVGRFMVTDPIGLRGGLNLYSYAPNPLKYADPLGLTPCAVSNQKANRLLDSSETKVTVRSRSDAEQLFMDRYLGHNYKNMTGESGPSTKNLMEYLTENKTKAGSYHWDDIKDPSVTKPSYRVSGHGPGNPDGDLPHLQVHQHGGSVRHIFFPWETLEHHHHHH	not soluble
MTDYPSIFEPLTVKRMTIKNRVIMPPMGTNLAGLNGEFLEEHMNYYEQRAKGGTGLITIENACVDFPYGTNGTTQLRIDNDQYIPGFYKLTERLHKHGTCVSIQINHAGASAYPARLNGLQPVSASDIPSKKGGTVPRPLTVEEIYEIVNKYGDAARRAQQAGFDAVEIHGGHSYLLCQFLSPLYNKRTDEFGGTPENRARIVKLILEKVRAEVGPFFPIVLRFSADEFTEGGNHLEDILELLDYCQEEADILNVSAAINDNLYLQIDQMNLEDGWRSYLAKAVKDKFNKPTITSGNIRSPKAAEKILSEGYADLLAMGRGLIAEPNWVNKVATGQEDMLRKCISCNIGCADHRISKSKPIRCTVNPDIIHEDKYKETKVTRPTNVVVIGGGTAGLEAACTAAEVGCNTTLIEANEQTGGLARAIANLPDKSRIADFPNYLANRAEKLTNLKVITGTKADTALIDTFNPDVVVNATGSKPLLPPIKGLLDVIDKEGSKVHSIFGLISNIDDFTEFSNKKVAVIGGGAVGLDVVEYFSERGSDVTIVEMMPLLGKDLDMITRLSMMDIIEKNHVDVQTETALTEVAADHFKVKHDGVDAEIPFDYGFVCLGMRPERPLMEELAAYGKEKQIEIVNIGDSAATRKILEGVREGRNILTTLEKIGSL	not soluble
MTEAAKKSTKKPVDDGNFDKEIISRWPDLELSQTRFMLNHPEVDSSVKEAKLEKLQETIKEFDMAPFYELVCADFKIVVDATQLAAMKAANQKKIDEITAEVEDAEKNLGESEVRQGLLRKFEYYCQIGDKDNALKAYTATYEKTVGMGYRIDVVFAMIRVGLFFLDHHLINKFITKAKELMEQGGDWERKNRLRSYEALYRMSVRDFAGAADLFLEAVPTFGSYELMTYENLILYTVITTTFALDRPDLRTKVIRCNEVQEQLTGGGLNGTLIPVREYLESYYDCHYDRFFIQLAALESERFKFDRYLSPHFNYYSRGMRHRAYEQFLTPYKTVRIDMMAKDFGVSRAFIDRELHRLIATGQLQCRIDAVNGVIEVNHRDSKNHLYKAVIKDGDILLNRIQKLARVINA	not soluble
MTEDLFGDLQDDTILAHLDNPAEDTSRFPALLAELNDLLRGELSRLGVDPAHSLEIVVAICKHLGGGQVYIPRGQALDSLIRDLRIWNDFNGRNVSELTTRYGVTFNTVYKAIRRMRRLKYRQYQPSLL	soluble
MTEDRNFDDIAHKFAKNIYGSDKGEIRQVIVWEDLEQLLSQLDTQKVPLHVLDAGGGLAQVSQKIARLGHRVTLCDLSSEMLQLAEQDIANNGLLEQYRFVHSPVQTIQAHLDAPVDLVLFHAVMEWLAEPKPALQNLLAQVRPGGMVSVMFYNYHGLVYKNAVCGNIPHVLEDMPHRKRFKLQPQKGLLPEEVYQWIEESSFEICGKSGIRCFSDYIGNMKNMGEYQYEDLVALERKFCRQEPYLSLGRYIHVWAKKKQ	not soluble
MTEEMNQIDVQVPEVGDVVKGIVTKVEDKHVDVEIINVKQSGIIPISELSSLHVEKASDVVKVDDELDLKVTKVEDDALILSKRAVDADRAWEDLEKKFETKEVFEAEVKDVVKGGLVVDIGVRGFIPASLVEAHFVEDFTDYKGKTLSLLVVELDRDKNRVILSHRAVVESEQANKKQELLQSLEVGSVLDGKVQRLTDFGAFVDIGGIDGLVHISQLSHSHVEKPSDVVEEGQEVKVKVLSVDRDNERISLSIKDTLPGPWNQIGEKVKPGDVLEGTVQRLVSFGAFVEILPGVEGLVHISQISNKHIGTPHEVLEEGQTVKVKVLDVNENEERISLSMRELEETPKADQEDYRQYQAKEETSTGFQLGDLIGDKLNKLKLEHHHHHH	soluble
